The target in this assay is Recombinant MRE11-RAD50-NBS1 (MRN) complex (human | , UniProt P49959 1-708; Q92878 1-1312; O60934 1-754). In words: co-IP.
Recombinant MRE11-RAD50-NBS1 (MRN) complex, sequence (P49959 whole entry, chain 1 of 3): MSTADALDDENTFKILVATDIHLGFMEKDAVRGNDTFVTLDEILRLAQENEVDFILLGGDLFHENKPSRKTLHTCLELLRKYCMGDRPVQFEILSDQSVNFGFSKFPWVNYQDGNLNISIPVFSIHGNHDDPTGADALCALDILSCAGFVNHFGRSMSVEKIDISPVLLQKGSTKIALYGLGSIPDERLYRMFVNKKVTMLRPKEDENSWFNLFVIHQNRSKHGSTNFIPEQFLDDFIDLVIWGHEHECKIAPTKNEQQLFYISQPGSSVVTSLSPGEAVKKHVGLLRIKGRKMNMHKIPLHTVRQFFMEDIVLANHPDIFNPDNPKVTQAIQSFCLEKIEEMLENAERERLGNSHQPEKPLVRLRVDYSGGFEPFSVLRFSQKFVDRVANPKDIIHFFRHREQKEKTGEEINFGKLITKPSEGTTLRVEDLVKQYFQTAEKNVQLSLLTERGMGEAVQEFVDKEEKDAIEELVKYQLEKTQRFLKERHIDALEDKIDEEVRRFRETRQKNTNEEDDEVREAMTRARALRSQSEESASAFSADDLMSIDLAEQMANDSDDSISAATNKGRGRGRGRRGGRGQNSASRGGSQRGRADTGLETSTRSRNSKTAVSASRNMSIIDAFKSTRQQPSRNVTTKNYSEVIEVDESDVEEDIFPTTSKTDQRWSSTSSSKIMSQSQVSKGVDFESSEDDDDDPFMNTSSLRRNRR
Recombinant MRE11-RAD50-NBS1 (MRN) complex, sequence (Q92878 whole entry, chain 2 of 3): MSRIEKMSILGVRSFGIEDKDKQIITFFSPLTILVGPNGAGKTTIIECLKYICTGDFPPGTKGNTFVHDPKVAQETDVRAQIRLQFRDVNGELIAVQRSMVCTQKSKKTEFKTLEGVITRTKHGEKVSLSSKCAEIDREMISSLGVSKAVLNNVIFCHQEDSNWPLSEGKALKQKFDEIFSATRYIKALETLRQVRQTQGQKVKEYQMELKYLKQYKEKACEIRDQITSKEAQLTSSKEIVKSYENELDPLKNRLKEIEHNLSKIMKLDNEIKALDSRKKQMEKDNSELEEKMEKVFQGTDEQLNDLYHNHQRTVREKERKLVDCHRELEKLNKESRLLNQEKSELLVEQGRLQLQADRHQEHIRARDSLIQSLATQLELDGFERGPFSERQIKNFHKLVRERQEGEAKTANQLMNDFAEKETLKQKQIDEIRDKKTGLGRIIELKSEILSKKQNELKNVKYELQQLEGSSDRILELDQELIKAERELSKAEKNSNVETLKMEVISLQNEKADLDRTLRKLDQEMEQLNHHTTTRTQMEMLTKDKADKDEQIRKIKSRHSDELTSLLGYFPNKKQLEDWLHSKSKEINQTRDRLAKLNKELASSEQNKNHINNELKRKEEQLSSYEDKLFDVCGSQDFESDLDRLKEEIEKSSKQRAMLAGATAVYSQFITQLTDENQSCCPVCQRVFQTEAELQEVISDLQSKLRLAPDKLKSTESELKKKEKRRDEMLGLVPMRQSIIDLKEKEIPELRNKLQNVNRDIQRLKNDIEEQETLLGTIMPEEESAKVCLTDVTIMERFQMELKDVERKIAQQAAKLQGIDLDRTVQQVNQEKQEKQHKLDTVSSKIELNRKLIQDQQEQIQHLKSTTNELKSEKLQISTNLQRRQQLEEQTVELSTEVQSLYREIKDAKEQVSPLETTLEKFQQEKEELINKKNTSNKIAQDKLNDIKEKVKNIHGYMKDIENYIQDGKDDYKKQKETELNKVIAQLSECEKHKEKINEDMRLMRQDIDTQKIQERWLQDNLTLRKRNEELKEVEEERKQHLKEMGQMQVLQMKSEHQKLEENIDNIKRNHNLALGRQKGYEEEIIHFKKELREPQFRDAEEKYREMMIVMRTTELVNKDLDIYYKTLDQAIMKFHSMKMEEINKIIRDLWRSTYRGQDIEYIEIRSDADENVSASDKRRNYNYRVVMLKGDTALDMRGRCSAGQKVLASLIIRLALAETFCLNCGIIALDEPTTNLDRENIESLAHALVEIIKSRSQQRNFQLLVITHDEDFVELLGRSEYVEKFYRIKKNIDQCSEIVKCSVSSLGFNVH
Recombinant MRE11-RAD50-NBS1 (MRN) complex, sequence (O60934 whole entry, chain 3 of 3): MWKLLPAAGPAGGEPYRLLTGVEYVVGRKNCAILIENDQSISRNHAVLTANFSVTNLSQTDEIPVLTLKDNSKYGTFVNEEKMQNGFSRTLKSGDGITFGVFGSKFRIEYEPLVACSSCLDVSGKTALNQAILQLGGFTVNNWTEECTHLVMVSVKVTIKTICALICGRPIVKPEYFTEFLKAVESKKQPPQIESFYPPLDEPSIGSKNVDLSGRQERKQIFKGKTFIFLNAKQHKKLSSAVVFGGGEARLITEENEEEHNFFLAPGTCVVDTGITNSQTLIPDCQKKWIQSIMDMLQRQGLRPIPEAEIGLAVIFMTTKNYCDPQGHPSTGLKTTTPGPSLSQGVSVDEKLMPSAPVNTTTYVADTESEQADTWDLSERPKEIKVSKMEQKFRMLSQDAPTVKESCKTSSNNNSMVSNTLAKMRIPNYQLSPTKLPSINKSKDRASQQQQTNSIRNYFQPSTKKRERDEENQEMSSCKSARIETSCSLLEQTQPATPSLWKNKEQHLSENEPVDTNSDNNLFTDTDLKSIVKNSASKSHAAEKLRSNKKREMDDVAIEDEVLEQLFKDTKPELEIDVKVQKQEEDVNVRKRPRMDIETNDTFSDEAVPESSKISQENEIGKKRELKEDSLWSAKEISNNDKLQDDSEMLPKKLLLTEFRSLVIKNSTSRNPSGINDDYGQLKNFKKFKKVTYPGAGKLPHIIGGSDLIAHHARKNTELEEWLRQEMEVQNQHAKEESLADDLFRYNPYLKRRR

B1: Recombinant FLAG-GST-CtIP-6H (natural protein, human, UniProt Q99708 1-897, looked up)
chain: MNISGSSCGSPNSADTSSDFKDLWTKLKECHDREVQGLQVKVTKLKQERILDAQRLEEFFTKNQQLREQQKVLHETIKVLEDRLRAGLCDRCAVTEEHMRKKQQEFENIRQQNLKLITELMNERNTLQEENKKLSEQLQQKIENDQQHQAAELECEEDVIPDSPITAFSFSGVNRLRRKENPHVRYIEQTHTKLEHSVCANEMRKVSKSSTHPQHNPNENEILVADTYDQSQSPMAKAHGTSSYTPDKSSFNLATVVAETLGLGVQEESETQGPMSPLGDELYHCLEGNHKKQPFEESTRNTEDSLRFSDSTSKTPPQEELPTRVSSPVFGATSSIKSGLDLNTSLSPSLLQPGKKKHLKTLPFSNTCISRLEKTRSKSEDSALFTHHSLGSEVNKIIIQSSNKQILINKNISESLGEQNRTEYGKDSNTDKHLEPLKSLGGRTSKRKKTEEESEHEVSCPQASFDKENAFPFPMDNQFSMNGDCVMDKPLDLSDRFSAIQRQEKSQGSETSKNKFRQVTLYEALKTIPKGFSSSRKASDGNCTLPKDSPGEPCSQECIILQPLNKCSPDNKPSLQIKEENAVFKIPLRPRESLETENVLDDIKSAGSHEPIKIQTRSDHGGCELASVLQLNPCRTGKIKSLQNNQDVSFENIQWSIDPGADLSQYKMDVTVIDTKDGSQSKLGGETVDMDCTLVSETVLLKMKKQEQKGEKSSNEERKMNDSLEDMFDRTTHEEYESCLADSFSQAADEEEELSTATKKLHTHGDKQDKVKQKAFVEPYFKGDERETSLQNFPHIEVVRKKEERRKLLGHTCKECEIYYADMPAEEREKKLASCSRHRFRYIPPNTPENFWEVGFPSTQTCMERGYIKEDLDPCPRPKRRQPYNAIFSPKGKEQKT
As to B1, the binding result is listed as “binds”.
